Results as given in patent US20030022853A1.

Columns and labels:
[1] = molecular target: pure human c-JUN protein (full length, Promega) (human) (UniProt P05412); experiment: laser fluorescence quenching assay, 5 µg antibody + 1 µg c-JUN + 0.075 pmole JD1F/2F, 50 mM NaCl
[2] = molecular target: pure human c-JUN protein (full length, Promega) (human) (UniProt P05412); experiment: laser fluorescence quenching assay, 5 µg antibody + 1 µg c-JUN + 0.075 pmole JD1F/2F, 50 mM NaCl (c-JUN:DNA alone 25%)
[3] = molecular target: pure human c-JUN protein (full length, Promega) (human) (UniProt P05412); experiment: laser fluorescence quenching assay, 750 ng antibody + 250 ng c-JUN + 0.075 pmole JD1F/2F, 50 mM NaCl
[4] = molecular target: pure human c-JUN protein (full length, Promega) (human) (UniProt P05412); experiment: laser fluorescence quenching assay, 1 µg antibody + 1 µg c-JUN + 0.075 pmole JD1F/2F, 50 mM NaCl
[5] = molecular target: pure human c-JUN protein (full length, Promega) (human) (UniProt P05412); experiment: laser fluorescence quenching assay, 1 µg antibody + 1 µg c-JUN + 0.075 pmole JD1F/2F, 50 mM NaCl (c-JUN:DNA alone 25%)
[6] = molecular target: pure human c-JUN protein (full length, Promega) (human) (UniProt P05412); experiment: laser fluorescence quenching assay, 750 ng antibody + 250 ng c-JUN + 0.075 pmole JD1F/2F, 50 mM NaCl (c-JUN:DNA alone 11%)

Sequence of UniProt P05412 (P05412 whole entry): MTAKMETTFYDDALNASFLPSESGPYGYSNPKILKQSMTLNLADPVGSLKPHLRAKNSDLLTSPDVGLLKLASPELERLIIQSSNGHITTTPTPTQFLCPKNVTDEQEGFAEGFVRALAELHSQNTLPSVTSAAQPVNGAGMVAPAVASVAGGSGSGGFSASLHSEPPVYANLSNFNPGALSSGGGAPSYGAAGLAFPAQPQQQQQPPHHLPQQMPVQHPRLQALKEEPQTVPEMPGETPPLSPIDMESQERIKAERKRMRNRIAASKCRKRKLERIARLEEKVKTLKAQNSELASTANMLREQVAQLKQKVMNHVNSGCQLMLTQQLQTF

- further decrease in fluorescent intensity from the c-JUN:DNA complex [1]: 17%
- decrease in fluorescent intensity compared to DNA alone [2]: 42%
- further decrease in fluorescent intensity from the c-JUN:DNA complex [3]: 16%
- further decrease in fluorescent intensity from the c-JUN:DNA complex [4]: 12%
- decrease in fluorescent intensity compared to DNA alone [5]: 37%
- decrease in fluorescent intensity compared to DNA alone [6]: 27%
Substance: monoclonal IgG1 antibody, c-JUN (KM-1) (Santa Cruz Biotechnology)
